For orientation: stoichiometry N means a count of units in the complex or per binding partner.

This data set deals with the molecule itself. The data set can be described thus: SDS-resistant oligomers on SDS-PAGE and western blot; PAE cells stably expressing the tagged transporter, vehicle (DMSO) or 20 µM AIM-100 for 2 hr at 37°C (also after cocaine, dopamine, amphetamine, modafinil, KRCA-0008, CHC siRNA, at 4°C or 20°C); lysis in TGH buffer, Laemmli buffer (2% SDS, 5% β-mercaptoethanol) 5 min at 95°C, 7.5% SDS-PAGE, blot with GFP antibody; oligomers (O) against monomers (M). In general terms: Immunoblotting shows a protein as a band on a membrane.

B1: YFP-DAT additionally tagged with an extracellular hemagglutinin (HA) epitope (YFP-HA-DAT) (natural protein, human, UniProt Q01959 1-620, looked up)
chain: MSKSKCSVGLMSSVVAPAKEPNAVGPKEVELILVKEQNGVQLTSSTLTNPRQSPVEAQDRETWGKKIDFLLSVIGFAVDLANVWRFPYLCYKNGGGAFLVPYLLFMVIAGMPLFYMELALGQFNREGAAGVWKICPILKGVGFTVILISLYVGFFYNVIIAWALHYLFSSFTTELPWIHCNNSWNSPNCSDAHPGDSSGDSSGLNDTFGTTPAAEYFERGVLHLHQSHGIDDLGPPRWQLTACLVLVIVLLYFSLWKGVKTSGKVVWITATMPYVVLTALLLRGVTLPGAIDGIRAYLSVDFYRLCEASVWIDAATQVCFSLGVGFGVLIAFSSYNKFTNNCYRDAIVTTSINSLTSFSSGFVVFSFLGYMAQKHSVPIGDVAKDGPGLIFIIYPEAIATLPLSSAWAVVFFIMLLTLGIDSAMGGMESVITGLIDEFQLLHRHRELFTLFIVLATFLLSLFCVTNGGIYVFTLLDHFAAGTSILFGVLIEAIGVAWFYGVGQFSDDIQQMTGQRPSLYWRLCWKLVSPCFLLFVVVVSIVTFRPPHYGAYIFPDWANALGWVIATSSMAMVPIYAAYKFCSLPGSFREKLAYAIAPEKDRELVDRGEVRQFTLRHWLKV
notes: Dopamine transporter (DAT), human; Monomer runs at 95 kDa, SDS-resistant oligomer at about 290 kDa; also called dopamine transporter; human DAT; source: PAE cells, stably expressed, in lysate
For the protein B1, the “fold increase of the fraction of the ~290 kDa oligomer species with AIM-100 against vehicle” value was over 5 fold and the “stoichiometry N” value is about 3.

The record behind these values is PMC5896956, “Small molecule induced oligomerization, clustering and clathrin-independent endocytosis of the dopamine transporter” (eLife, 2018).
